For the experiment, the target named is Soluble human cMet extracellular domain (ECD) protein (human) (UniProt P08581). Nature of the experiment: SPR, captured via anti-human kappa, soluble ECD injected. (In general: Surface plasmon resonance follows binding to a sensor surface in real time, without labels.)

As usually defined, the Kd is the constant that tells how readily two partners part at equilibrium. For orientation: koff means a measure of how fast the partners let go of each other. Read a high koff as fast dissociation. What is called kon is the rate constant with which the complex forms.

Sequence of Soluble human cMet extracellular domain (ECD) protein (human) (P08581 25-932): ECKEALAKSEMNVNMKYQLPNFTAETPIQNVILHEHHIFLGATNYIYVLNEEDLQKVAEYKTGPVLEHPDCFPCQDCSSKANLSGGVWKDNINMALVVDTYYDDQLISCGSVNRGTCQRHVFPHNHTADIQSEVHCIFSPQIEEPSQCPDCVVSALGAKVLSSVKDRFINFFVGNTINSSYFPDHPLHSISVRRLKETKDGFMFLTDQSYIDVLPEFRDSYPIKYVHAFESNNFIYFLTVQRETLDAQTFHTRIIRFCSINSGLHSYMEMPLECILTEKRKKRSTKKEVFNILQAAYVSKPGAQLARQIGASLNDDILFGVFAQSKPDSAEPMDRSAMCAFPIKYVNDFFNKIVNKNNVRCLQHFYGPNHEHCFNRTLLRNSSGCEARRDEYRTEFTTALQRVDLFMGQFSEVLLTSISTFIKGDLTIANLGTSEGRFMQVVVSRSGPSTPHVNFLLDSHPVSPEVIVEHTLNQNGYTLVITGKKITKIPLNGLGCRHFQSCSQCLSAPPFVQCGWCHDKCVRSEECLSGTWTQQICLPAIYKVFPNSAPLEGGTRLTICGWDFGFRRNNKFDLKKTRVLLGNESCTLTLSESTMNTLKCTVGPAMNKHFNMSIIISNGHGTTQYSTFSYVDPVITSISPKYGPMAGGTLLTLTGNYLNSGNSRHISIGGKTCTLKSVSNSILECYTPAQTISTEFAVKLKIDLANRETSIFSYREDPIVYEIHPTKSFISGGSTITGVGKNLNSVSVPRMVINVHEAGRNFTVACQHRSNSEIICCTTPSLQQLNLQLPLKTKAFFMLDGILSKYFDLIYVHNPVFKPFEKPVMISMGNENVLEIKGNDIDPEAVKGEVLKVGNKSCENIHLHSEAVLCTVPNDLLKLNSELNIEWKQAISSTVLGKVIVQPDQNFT

B1: MetMAb (antibody, INN chains, looked up, V domains shown)
VH: EVQLVESGGGLVQPGGSLRLSCAASGYTFTSYWLHWVRQAPGKGLEWVGMIDPSNSDTRFNPNFKDRFTISADTSKNTAYLQMNSLRAEDTAVYYCATYRSYVTPLDYWGQGTLVTVSS
VL: DIQMTQSPSSLSASVGDRVTITCKSSQSLLYTSSQKNYLAWYQQKPGKAPKLLIYWASTRESGVPSRFSGSGSGTDFTLTISSLQPEDFATYYCQQYYAYPWTFGQGTKVEIKR
In turn, B1 displayed a Kd of 1.3 nM, a koff of 0.0001 s⁻¹ and a kon of 75000 M⁻¹ s⁻¹.

For the origin of these results see patent publication US20240132626A1.
